Assay results reported in article PMC5576569 (Journal of molecular biology, 2017).

Molecular target: the molecule itself
Experiment: AUC

B1: SSB-ΔL, linkerless variant of E. coli SSB (SSBΔ115–168) (natural protein, UniProt P0AGE0 2-178, looked up)
chain: ASRGVNKVILVGNLGQDPEVRYMPNGGAVANITLATSESWRDKATGEMKEQTEWHRVVLFGKLAEVASEYLRKGSQVYIEGQLRTRKWTDQSGQDRYTTEVVVNVGGTMQMLGGMDFDDDIPF
- stoichiometry N: 4
